As usually defined, the Kd is a measure of binding affinity in units of concentration. Read a high Kd as lower affinity.

The target of this assay is Cyclophilin A (Homo sapiens, UniProt P62937). Description: SPR. For orientation: In SPR one partner is held on a chip, and binding of the other changes the refractive index at the surface.

B1: HIV-1 capsid protein CA (unassembled) (protein)
chain: not shown
The molecule B1 gave an equilibrium dissociation constant (Kd) of around 27 µM.

The values above are taken from article PMC6449974 (2019).
